This data set concerns the molecule itself. Kind of data set: crystal structure.

The text below walks through data of publication PMC8247599 (Genes & Development, 2021).

B1: Khc^855–941 (domain or fragment)
chain: not shown
As for B1, the binding result is on record as “binds”.
